IntAct's records for PubMed 25819436

What was measured:
sh3g2_rat Sh3gl2 = sh3g2_rat Sh3gl2 (UniProt O35179)
amph_rat Amph = amph_rat Amph (UniProt O08838)
sh3g1_rat Sh3gl1 = sh3g1_rat Sh3gl1 (UniProt O35964)
grb2_human GRB2 = grb2_human GRB2 (UniProt P62993)

Measured: effect of a mutation on the interaction

Sequence of SLIT-ROBO Rho GTPase-activating protein 3 (Homo sapiens), O43295 P1056A;P1059A (O43295 whole entry P1056A/P1059A): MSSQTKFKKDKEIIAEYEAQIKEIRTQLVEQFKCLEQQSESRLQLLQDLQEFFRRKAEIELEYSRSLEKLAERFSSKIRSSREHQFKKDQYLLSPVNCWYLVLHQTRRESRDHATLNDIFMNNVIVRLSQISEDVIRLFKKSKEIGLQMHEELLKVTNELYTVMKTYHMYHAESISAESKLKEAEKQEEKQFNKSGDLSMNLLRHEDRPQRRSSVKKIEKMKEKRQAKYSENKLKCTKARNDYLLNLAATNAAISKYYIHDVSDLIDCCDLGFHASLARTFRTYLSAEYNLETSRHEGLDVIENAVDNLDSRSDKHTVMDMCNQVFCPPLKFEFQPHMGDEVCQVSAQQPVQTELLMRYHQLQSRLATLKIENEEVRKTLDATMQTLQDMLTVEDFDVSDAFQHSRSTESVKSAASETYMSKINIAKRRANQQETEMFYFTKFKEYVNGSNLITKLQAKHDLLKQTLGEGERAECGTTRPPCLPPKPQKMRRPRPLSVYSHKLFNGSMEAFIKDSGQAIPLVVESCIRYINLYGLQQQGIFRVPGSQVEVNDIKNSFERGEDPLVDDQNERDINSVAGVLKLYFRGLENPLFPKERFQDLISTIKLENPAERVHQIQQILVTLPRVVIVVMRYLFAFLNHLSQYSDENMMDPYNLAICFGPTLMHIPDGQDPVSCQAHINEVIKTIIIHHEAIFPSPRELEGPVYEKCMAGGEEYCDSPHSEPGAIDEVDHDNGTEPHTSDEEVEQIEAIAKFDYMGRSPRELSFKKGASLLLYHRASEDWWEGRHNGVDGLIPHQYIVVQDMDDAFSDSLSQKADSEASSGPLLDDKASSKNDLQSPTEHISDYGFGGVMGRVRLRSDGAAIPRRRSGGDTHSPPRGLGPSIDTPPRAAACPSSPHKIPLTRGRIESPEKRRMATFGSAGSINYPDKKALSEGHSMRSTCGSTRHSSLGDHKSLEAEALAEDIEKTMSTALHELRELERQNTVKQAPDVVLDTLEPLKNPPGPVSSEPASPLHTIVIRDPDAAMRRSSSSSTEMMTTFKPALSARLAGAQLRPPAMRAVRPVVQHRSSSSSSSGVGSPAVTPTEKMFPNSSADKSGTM
Sequence of sh3g2_rat Sh3gl2 (O35179 whole entry): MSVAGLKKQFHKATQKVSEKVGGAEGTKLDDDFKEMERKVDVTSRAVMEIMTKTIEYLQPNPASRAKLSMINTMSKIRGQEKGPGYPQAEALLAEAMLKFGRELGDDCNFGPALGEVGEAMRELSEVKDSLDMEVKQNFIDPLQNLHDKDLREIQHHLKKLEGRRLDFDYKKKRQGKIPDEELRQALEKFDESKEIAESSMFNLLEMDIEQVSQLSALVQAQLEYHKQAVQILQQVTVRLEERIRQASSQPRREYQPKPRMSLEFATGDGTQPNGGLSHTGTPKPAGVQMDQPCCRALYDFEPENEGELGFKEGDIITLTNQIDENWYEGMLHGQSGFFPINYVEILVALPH
Sequence of grb2_human GRB2 (P62993 whole entry, looked up): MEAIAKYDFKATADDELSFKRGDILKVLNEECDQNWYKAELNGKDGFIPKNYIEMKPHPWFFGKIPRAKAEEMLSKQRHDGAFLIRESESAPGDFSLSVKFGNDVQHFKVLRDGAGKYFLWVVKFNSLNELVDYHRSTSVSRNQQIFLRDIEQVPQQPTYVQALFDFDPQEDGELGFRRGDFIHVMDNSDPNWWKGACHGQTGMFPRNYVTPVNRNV
Sequence of sh3g1_rat Sh3gl1 (O35964 whole entry): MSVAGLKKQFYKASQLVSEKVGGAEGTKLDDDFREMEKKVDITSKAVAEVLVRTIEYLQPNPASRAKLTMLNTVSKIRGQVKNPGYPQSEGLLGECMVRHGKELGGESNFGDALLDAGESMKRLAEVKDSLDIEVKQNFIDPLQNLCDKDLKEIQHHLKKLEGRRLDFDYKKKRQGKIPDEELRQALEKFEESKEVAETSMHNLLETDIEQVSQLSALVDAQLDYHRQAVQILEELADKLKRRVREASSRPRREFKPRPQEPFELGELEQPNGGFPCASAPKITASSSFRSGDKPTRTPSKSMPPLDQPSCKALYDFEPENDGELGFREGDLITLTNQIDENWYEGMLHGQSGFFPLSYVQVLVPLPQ
Sequence of amph_rat Amph (O08838 whole entry): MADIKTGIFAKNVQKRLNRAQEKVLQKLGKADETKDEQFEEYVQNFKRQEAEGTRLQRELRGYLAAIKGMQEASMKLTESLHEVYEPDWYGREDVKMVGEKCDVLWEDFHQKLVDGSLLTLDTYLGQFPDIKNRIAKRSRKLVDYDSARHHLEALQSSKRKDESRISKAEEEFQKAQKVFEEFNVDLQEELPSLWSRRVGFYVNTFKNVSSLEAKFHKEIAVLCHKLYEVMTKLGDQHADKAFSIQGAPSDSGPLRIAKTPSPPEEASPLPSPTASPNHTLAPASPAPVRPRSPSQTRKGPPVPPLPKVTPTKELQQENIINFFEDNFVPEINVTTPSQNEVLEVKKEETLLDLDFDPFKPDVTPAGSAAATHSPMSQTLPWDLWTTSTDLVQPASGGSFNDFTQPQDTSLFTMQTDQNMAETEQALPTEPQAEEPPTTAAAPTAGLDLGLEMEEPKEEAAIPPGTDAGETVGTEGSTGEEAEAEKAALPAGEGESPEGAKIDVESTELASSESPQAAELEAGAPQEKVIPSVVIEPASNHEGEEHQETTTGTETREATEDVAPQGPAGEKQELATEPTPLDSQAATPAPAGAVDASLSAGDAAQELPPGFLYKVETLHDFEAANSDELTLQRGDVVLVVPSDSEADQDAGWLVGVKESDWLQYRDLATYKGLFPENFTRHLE

SLIT-ROBO Rho GTPase-activating protein 3 (Homo sapiens), O43295 P1056A;P1059A
disrupting interaction: all assays above
